Tests used:
[1] = target: dCas9-3xRFP (Streptococcus pyogenes) (UniProt Q99ZW2); test: cell-based or functional assay
dCas9-p300 = dCas9-p300 (UniProt Q99ZW2); test: cell-based or functional assay

Q: Which telomere labeling in U2OS nuclei, dark: cells labeling negative [1] does the source give for “CASANOVA (Acr-LOV variant 4; delta N64/Q65/E66, LOV2 inserted, no GS-linkers)” here?
A: 60%

Q: And the telomere labeling in U2OS nuclei, dark: more than 15 dots in the nucleus [1]?
A: < 5%

Q: And the telomere labeling in U2OS nuclei, light: more than 15 dots in the nucleus [1]?
A: 40%

Q: What about the telomere labeling in U2OS nuclei, light: nuclei labeling positive [1] of the same sequence?
A: 80%

Q: What about the IL1RN transcript levels by quantitative RT-PCR, light against dark (dCas9-p300) of the same sequence?
A: < 10 fold
